Test results: patent US20200199216A1 (KINDRED BIOSCIENCES, published 2020)

T1: canine IL17A (as used at 1 nM in the H1080 cell assay) (canine)
T1 chain: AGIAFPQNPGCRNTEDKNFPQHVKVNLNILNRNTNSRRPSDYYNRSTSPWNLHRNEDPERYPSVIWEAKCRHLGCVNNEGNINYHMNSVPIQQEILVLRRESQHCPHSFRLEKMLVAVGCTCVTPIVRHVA

T2: equine IL17A-polyHis (equine, biotinylated in the biosensor assay)
T2 construct: not shown: poly-His tag on the C-terminal
T2 chain: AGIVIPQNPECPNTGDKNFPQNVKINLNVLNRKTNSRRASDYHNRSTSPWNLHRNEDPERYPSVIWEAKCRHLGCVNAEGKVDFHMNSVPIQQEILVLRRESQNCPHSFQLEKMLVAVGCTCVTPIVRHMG

T3: canine IL17A-hFc-polyHis Mutant 5 (C-terminal deletion of amino acids 126-131)
T3 IL17A-hFc-polyHis fusion chain: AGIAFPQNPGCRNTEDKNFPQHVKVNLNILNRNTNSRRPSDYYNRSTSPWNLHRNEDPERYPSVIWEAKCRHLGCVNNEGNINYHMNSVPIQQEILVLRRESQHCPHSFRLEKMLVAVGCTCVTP

T4: canine IL17A-hFc-polyHis Mutant 3 (Q103R)
T4 IL17A-hFc-polyHis fusion chain: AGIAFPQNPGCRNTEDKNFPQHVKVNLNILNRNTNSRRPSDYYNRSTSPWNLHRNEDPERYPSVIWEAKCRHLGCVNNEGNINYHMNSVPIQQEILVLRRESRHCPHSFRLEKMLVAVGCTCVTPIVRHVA

T5: canine IL17A-hFc-polyHis Mutant 1 (R71L, L73W, I82T) (canine)
T5 construct: Tested as 3-fold concentrated supernatant of transfected 293 cells; not shown: human Fc; poly-His tag
T5 chain: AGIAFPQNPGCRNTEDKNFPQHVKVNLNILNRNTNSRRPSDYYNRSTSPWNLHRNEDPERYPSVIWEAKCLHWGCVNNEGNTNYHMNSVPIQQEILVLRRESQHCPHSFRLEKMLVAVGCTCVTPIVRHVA

T6: canine IL17A-polyHis (canine, biotinylated (EZ-Link NHS-LC-biotin) in the biosensor assays)
T6 construct: also called biotinylated canine IL17A-polyHis; not shown: poly-His tag on the C-terminal
T6 chain: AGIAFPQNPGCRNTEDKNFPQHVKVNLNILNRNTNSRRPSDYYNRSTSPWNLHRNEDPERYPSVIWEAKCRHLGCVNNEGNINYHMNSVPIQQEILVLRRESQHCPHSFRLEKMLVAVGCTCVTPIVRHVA

T7: canine IL17A-huFc (canine)
T7 construct: also called canine IL17A-hFc; not shown: human Fc on the C-terminal
T7 chain: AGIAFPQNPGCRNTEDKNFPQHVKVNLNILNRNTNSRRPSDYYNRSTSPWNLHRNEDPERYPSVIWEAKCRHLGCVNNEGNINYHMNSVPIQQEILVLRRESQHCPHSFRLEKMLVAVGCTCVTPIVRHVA

T8: canine IL17F-polyHis (canine, biotinylated in the biosensor assay)
T8 construct: also called IL17F homodimer; not shown: poly-His tag on the C-terminal
T8 chain: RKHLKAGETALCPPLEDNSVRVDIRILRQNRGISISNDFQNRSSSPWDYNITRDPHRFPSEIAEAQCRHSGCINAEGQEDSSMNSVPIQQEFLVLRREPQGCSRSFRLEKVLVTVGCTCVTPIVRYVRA


Key:
[1] = molecular target: T1, canine IL17A (as used at 1 nM in the …); test: cell-based or functional assay
[2] = molecular target: T2, equine IL17A-polyHis; test: BLI (Octet); biotinylated equine IL17A-polyHis on streptavidin sensors, antibody 20 µg/mL; BLI (Octet), biotinylated equine IL17A-polyHis on streptavidin sensor, antibody 20 µg/mL
Description: The binding analysis was performed using a Biosensor Octet as follows. Both feline IL17A-polyHis and equine IL17A-polyHis were biotinylated and immobilized to streptavidin biosensors. The association of monoclonal antibody Clones A, C, D, and E (20 μg/mL) to either feline or […] IL17A-polyHis was monitored for 90 seconds. Dissociation was monitored for 600 seconds. A buffer only blank curve was subtracted to correct for any drift. The data were fit to a 1:1 binding model using ForteBio™ data analysis software to determine the kₒₙ, koff, and the Kd. The buffer for dilutions and all binding steps was: 20 mM phosphate, 150 mM NaCl, pH 7.2. […] Weak binding signals of Clone A to feline IL17A and Clone C to feline IL17A were observed.

[3] = molecular target: T3, canine IL17A-hFc-polyHis Mutant 5 …; test: Western blot of 3-fold concentrated 293 supernatants, 25 µL per lane, SDS-PAGE with or without DTT, PVDF, probed with Clone C
Description: (§1) Plasmid constructs containing nucleotide sequences encoding each of the canine IL17A-hFC-polyHis mutants were transiently transfected into 293 cells and the supernatants concentrated 3-fold. Each mutant was separated by SDS-PAGE (25 μL per lane) in the presence or absence of DTT and the proteins transferred to a PVDF membrane. The blot was probed using either Clone C antibody or anti-human IgG Fc (control).

[4] = molecular target: T4, canine IL17A-hFc-polyHis Mutant 3 …; test: as above
Description: as §1

[5] = molecular target: T5, canine IL17A-hFc-polyHis Mutant 1 …; test: as above
Description: as §1

[6] = molecular target: T6, canine IL17A-polyHis; test: BLI (Octet); biotinylated canine IL17A-polyHis on streptavidin sensors, antibody 0-220 nM, 1:1 model
Description: The binding analysis was performed using a Biosensor Octet as follows. Briefly, canine IL17A-polyHis, which was expressed and purified from CHO-S cells, was biotinylated using EZ-Link NHS-LC-biotin (Catalog No. 21336, Thermo Scientific). Free, unreacted biotin was removed from biotinylated IL17A by dialysis. Biotinylated canine IL17A was captured on streptavidin sensor tips (Catalog No. 18-509, ForteBio). The association of different concentrations (0 nM, 18.33 nM, 45.87 nM, 110 nM, 220 nM) of hybridoma Clone C or caninized Clone C antibody to canine IL17A was monitored for 90 seconds. Dissociation was monitored for 600 seconds. A buffer only blank curve was subtracted to correct for any drift. The data were fit to a 1:1 binding model using ForteBio™ data analysis software to determine the kₒₙ, koff, and the Kd. The buffer for dilutions and all binding steps was: 20 mM phosphate, 150 mM NaCl, pH 7.2.

[7] = molecular target: T7, canine IL17A-huFc; test: ELISA; canine IL17A-huFc captured on anti-human Fc, detection goat anti-mouse Fc-HRP
Description: Binding affinity of monoclonal antibodies A, B, C, D, and E to canine IL17A-huFc polypeptide was analyzed by ELISA. In the binding ELISA performed, the wells were coated with anti-human Fc antibody. Canine IL17A-huFc protein was then added to the wells. Antibody purified from each of the five hybridoma clones was added to the wells at various concentrations (19.35 nM, 6.45 nM, 2.15 nM, 0.75 nM, 0.24 nM, 0.08 nM, 0.03 nM, and 0 nM). Goat anti-mouse Fc-HRP was added and color was developed. […] Table 3 below provides the EC50 values associated with the binding ELISA for each of the clones.

[8] = molecular target: T7, canine IL17A-huFc; test: BLI (Octet); canine IL17A-huFc captured on anti-human Fc sensors, antibody at 10 µg/mL
Description: Briefly, antibody concentrations were measured by protein A assay using Biosensor Octet (Forte Bio). Canine IL17A-huFc was captured to anti-human Fc bound biosensors. The association of anti-IL17A antibody from clones A, C, D, and E to the canine IL17A-huFc was monitored for 90 seconds. Dissociation was monitored for 600 seconds. A buffer only blank curve was subtracted to correct for any drift. The data were fit to a 1:1 binding model using ForteBio™ data analysis software to determine the kon, koff, and the Kd. The buffer for dilutions and all binding steps was: 20 mM phosphate, 150 mM NaCl, pH 7.2.

[9] = molecular target: T8, canine IL17F-polyHis; test: BLI (Octet); biotinylated canine IL17F-polyHis on streptavidin sensors, antibody 0-124 nM, 1:1 model
Description: The binding analysis was performed using a biosensor Octet as follows. Briefly, canine IL17F-polyHis was biotinylated using EZ-Link NHS-LC-biotin (Catalog No. 21336, Thermo Scientific). Free, unreacted biotin was removed from biotinylated IL17F-polyHis by dialysis. Biotinylated canine IL17F was captured on streptavidin sensor tips (Catalog No. 18-509, ForteBio). The association of different concentrations (0 nM, 2 nM, 10.1 nM, 21.3 nM, 43.3 nM, 86.7 nM, 124 nM) of the caninized Clone C antibody and canine IL17F-polyHis was monitored for ninety seconds. Dissociation was monitored for 600 seconds. A buffer only blank curve was subtracted to correct for any drift. The data were fit to a 1:1 binding model using ForteBio™ data analysis software to determine the kₒₙ, koff, and the Kd. The buffer for dilutions and all binding steps was: 20 mM phosphate, 150 mM NaCl, pH 7.2.

[10] = molecular target: T1, canine IL17A (as used at 1 nM in the …); test: cell-based or functional assay

Row | EC50 (ng/mL), H1080 Cell Functional Assay (IL6 secretion) [1] | Kd [2] | binding result [3] | binding result [4] | binding result [5] | Kd [6] | EC50 [7] | Kd [8] | Kd [9] | IC50, H1080 cell-based canine IL17A neutralization assay (IL6 secretion) [10] | Binder
1 | 7 ng/mL | 0.13 nM | binds | binds | binds | 7.9 nM | 0.2 ng/mL | < 10 nM |  |  | mouse monoclonal antibody Clone C (antibody, mouse IgG1, V domains shown, Hybridoma antibody; also called hybridoma Clone C) VH: EVQLVESGGGLVQPGGSLKLSCAASGFTFSSYGMSWVRQTPDKRLELVAIINSNGGSTYYPDSVKGRFTISRDNDKNSLYLQMSSLKSEDTAMYYCVRCHYDYERVFDYWGQGTTLTVSS VL: DIQMTQSSSYLSVSLGGRVTITCKANDHINNWLAWYQQKPGNAPRLLISGSTSLETGVPSRFSGSGSGKDYTLSITSLQTEDVATYYCQQYWSTPFTFGSGTKLEIK
2 |  |  |  |  |  | 1.4 nM |  |  | 4.1 nM | 0.41 nM | caninized Clone C antibody (caninized Clone C VH with canine IgG-B, caninized Clone C VL with canine kappa constant region) (antibody, V domains shown, expressed in CHO-S cells, purified on Protein A) VH: EVQLVESGGGLVKPGGSLRLSCAASGFTFSSYGMSWVRQAPGKRLELVAIINSNGGSTYYPDSVKGRFTFSLDTSKNTLYLQMNSLRAEDTAMYYCVRCHYDYERVFDYWGQGTLVTVSS VL: DIQMTQSPASVSGSLGDKVSITCKANDHINNWLAWYQQLPGNAPRLLISGSTSLESGVPDRFSGSKSGSSFTLTISGLQPEDFATYYCQQYWSTPFTFGSGTKVEIKR
